Laboratory results as given in PMC8634136 (The EMBO Journal, 2021).

B1: TIMELESS (natural protein, human)
chain: MDLHMMNCELLATCSALGYLEGDTYHKEPDCLESVKDLIRYLRHEDETRDVRQQLGAAQILQSDLLPILTQHHQDKPLFDAVIRLMVNLTQPALLCFGNLPKEPSFRHHFLQVLTYLQAYKEAFASEKAFGVLSETLYELLQLGWEERQEEDNLLIERILLLVRNILHVPADLDQEKKIDDDASAHDQLLWAIHLSGLDDLLLFLASSSAEEQWSLHVLEIVSLMFRDQNPEQLAGVGQGRLAQERSADFAELEVLRQREMAEKKTRALQRGNRHSRFGGSYIVQGLKSIGERDLIFHKGLHNLRNYSSDLGKQPKKVPKRRQAARELSIQRRSALNVRLFLRDFCSEFLENCYNRLMGSVKDHLLREKAQQHDETYYMWALAFFMAFNRAASFRPGLVSETLSVRTFHFIEQNLTNYYEMMLTDRKEAASWARRMHLALKAYQELLATVNEMDISPDEAVRESSRIIKNNIFYVMEYRELFLALFRKFDERCQPRSFLRDLVETTHLFLKMLERFCRSRGNLVVQNKQKKRRKKKKKVLDQAIVSGNVPSSPEEVEAVWPALAEQLQCCAQNSELSMDSVVPFDAASEVPVEEQRAEAMVRIQDCLLAGQAPQALTLLRSAREVWPEGDVFGSQDISPEEEIQLLKQILSAPLPRQQGPEERGAEEEEEEEEEEEEELQVVQVSEKEFNFLDYLKRFACSTVVRAYVLLLRSYQQNSAHTNHCIVKMLHRLAHDLKMEALLFQLSVFCLFNRLLSDPAAGAYKELVTFAKYILGKFFALAAVNQKAFVELLFWKNTAVVREMTEGYGSLDDRSSSRRAPTWSPEEEAHLRELYLANKDVEGQDVVEAILAHLNTVPRTRKQIIHHLVQMGLADSVKDFQRKGTHIVLWTGDQELELQRLFEEFRDSDDVLGHIMKNITAKRSRARIVDKLLALGLVAERRELYKKRQKKLASSILPNGAESLKDFCQEDLEEEENLPEEDSEEEEEGGSEAEQVQGSLVLSNENLGQSLHQEGFSIPLLWLQNCLIRAADDREEDGCSQAVPLVPLTEENEEAMENEQFQQLLRKLGVRPPASGQETFWRIPAKLSPTQLRRAAASLSQPEEEQKLQPELQPKVPGEQGSDEEHCKEHRAQALRALLLAHKKKAGLASPEEEDAVGKEPLKAAPKKRQLLDSDEEQEEDEGRNRAPELGAPGIQKKKRYQIEDDEDD
notes: residues 7-803 modelled, 527-684 not seen; Purified together with TIPIN; written here as a single subunit for the pairwise contacts in the replisome structure
B2: MCM6 (natural protein, human)
chain: MDLAAAAEPGAGSQHLEVRDEVAEKCQKLFLDFLEEFQSSDGEIKYLQLAEELIRPERNTLVVSFVDLEQFNQQLSTTIQEEFYRVYPYLCRALKTFVKDRKEIPLAKDFYVAFQDLPTRHKIRELTSSRIGLLTRISGQVVRTHPVHPELVSGTFLCLDCQTVIRDVEQQFKYTQPNICRNPVCANRRRFLLDTNKSRFVDFQKVRIQETQAELPRGSIPRSLEVILRAEAVESAQAGDKCDFTGTLIVVPDVSKLSTPGARAETNSRVSGVDGYETEGIRGLRALGVRDLSYRLVFLACCVAPTNPRFGGKELRDEEQTAESIKNQMTVKEWEKVFEMSQDKNLYHNLCTSLFPTIHGNDEVKRGVLLMLFGGVPKTTGEGTSLRGDINVCIVGDPSTAKSQFLKHVEEFSPRAVYTSGKASSAAGLTAAVVRDEESHEFVIEAGALMLADNGVCCIDEFDKMDVRDQVAIHEAMEQQTISITKAGVKATLNARTSILAAANPISGHYDRSKSLKQNINLSAPIMSRFDLFFILVDECNEVTDYAIARRIVDLHSRIEESIDRVYSLDDIRRYLLFARQFKPKISKESEDFIVEQYKHLRQRDGSGVTKSSWRITVRQLESMIRLSEAMARMHCCDEVQPKHVKEAFRLLNKSIIRVETPDVNLDQEEEIQMEVDEGAGGINGHADSPAPVNGINGYNEDINQESAPKASLRLGFSEYCRISNLIVLHLRKVEEEEDESALKRSELVNWYLKEIESEIDSEEELINKKRIIEKVIHRLTHYDHVLIELTQAGLKGSTEGSESYEEDPYLVVNPNYLLED
notes: human MCM6, subunit of hsCMG; Subunit of the CMG helicase in the replisome structure; source: Hi5 insect cells co-infected with baculoviruses for MCM2-7, GINS and CDC45; purified as hsCMG (Flag M2, Strep-Tactin XT, MonoQ)
B3: MCM4 (natural protein, human)
chain: MSSPASTPSRRGSRRGRATPAQTPRSEDARSSPSQRRRGEDSTSTGELQPMPTSPGVDLQSPAAQDVLFSSPPQMHSSAIPLDFDVSSPLTYGTPSSRVEGTPRSGVRGTPVRQRPDLGSAQKGLQVDLQSDGAAAEDIVASEQSLGQKLVIWGTDVNVAACKENFQRFLQRFIDPLAKEEENVGIDITEPLYMQRLGEINVIGEPFLNVNCEHIKSFDKNLYRQLISYPQEVIPTFDMAVNEIFFDRYPDSILEHQIQVRPFNALKTKNMRNLNPEDIDQLITISGMVIRTSQLIPEMQEAFFQCQVCAHTTRVEMDRGRIAEPSVCGRCHTTHSMALIHNRSLFSDKQMIKLQESPEDMPAGQTPHTVILFAHNDLVDKVQPGDRVNVTGIYRAVPIRVNPRVSNVKSVYKTHIDVIHYRKTDAKRLHGLDEEAEQKLFSEKRVELLKELSRKPDIYERLASALAPSIYEHEDIKKGILLQLFGGTRKDFSHTGRGKFRAEINILLCGDPGTSKSQLLQYVYNLVPRGQYTSGKGSSAVGLTAYVMKDPETRQLVLQTGALVLSDNGICCIDEFDKMNESTRSVLHEVMEQQTLSIAKAGIICQLNARTSVLAAANPIESQWNPKKTTIENIQLPHTLLSRFDLIFLLLDPQDEAYDRRLAHHLVALYYQSEEQAEEELLDMAVLKDYIAYAHSTIMPRLSEEASQALIEAYVDMRKIGSSRGMVSAYPRQLESLIRLAEAHAKVRLSNKVEAIDVEEAKRLHREALKQSATDPRTGIVDISILTTGMSATSRKRKEELAEALKKLILSKGKTPALKYQQLFEDIRGQSDIAITKDMFEEALRALADDDFLTVTGKTVRLL
notes: MCM4, human; Stood in the structure as a subunit of m1; source: Hi5 insect cells, purified as a subunit of hsCMG

What was measured:
CLASPIN = target: T1, CLASPIN (human, UniProt Q9HAW4-1 1-1339); experiment: cryo-EM structure; independent replisome preparation that also contained CLASPIN; map EMD-13494 (to be published in a separate study), model PDB 7PFO docked into the density; details: both partners purified
T1 construct: human CLASPIN; residues 284-319, 525-540 and 592-618 modelled
T1 sequence (Q9HAW4 whole entry, the tested form may be a part): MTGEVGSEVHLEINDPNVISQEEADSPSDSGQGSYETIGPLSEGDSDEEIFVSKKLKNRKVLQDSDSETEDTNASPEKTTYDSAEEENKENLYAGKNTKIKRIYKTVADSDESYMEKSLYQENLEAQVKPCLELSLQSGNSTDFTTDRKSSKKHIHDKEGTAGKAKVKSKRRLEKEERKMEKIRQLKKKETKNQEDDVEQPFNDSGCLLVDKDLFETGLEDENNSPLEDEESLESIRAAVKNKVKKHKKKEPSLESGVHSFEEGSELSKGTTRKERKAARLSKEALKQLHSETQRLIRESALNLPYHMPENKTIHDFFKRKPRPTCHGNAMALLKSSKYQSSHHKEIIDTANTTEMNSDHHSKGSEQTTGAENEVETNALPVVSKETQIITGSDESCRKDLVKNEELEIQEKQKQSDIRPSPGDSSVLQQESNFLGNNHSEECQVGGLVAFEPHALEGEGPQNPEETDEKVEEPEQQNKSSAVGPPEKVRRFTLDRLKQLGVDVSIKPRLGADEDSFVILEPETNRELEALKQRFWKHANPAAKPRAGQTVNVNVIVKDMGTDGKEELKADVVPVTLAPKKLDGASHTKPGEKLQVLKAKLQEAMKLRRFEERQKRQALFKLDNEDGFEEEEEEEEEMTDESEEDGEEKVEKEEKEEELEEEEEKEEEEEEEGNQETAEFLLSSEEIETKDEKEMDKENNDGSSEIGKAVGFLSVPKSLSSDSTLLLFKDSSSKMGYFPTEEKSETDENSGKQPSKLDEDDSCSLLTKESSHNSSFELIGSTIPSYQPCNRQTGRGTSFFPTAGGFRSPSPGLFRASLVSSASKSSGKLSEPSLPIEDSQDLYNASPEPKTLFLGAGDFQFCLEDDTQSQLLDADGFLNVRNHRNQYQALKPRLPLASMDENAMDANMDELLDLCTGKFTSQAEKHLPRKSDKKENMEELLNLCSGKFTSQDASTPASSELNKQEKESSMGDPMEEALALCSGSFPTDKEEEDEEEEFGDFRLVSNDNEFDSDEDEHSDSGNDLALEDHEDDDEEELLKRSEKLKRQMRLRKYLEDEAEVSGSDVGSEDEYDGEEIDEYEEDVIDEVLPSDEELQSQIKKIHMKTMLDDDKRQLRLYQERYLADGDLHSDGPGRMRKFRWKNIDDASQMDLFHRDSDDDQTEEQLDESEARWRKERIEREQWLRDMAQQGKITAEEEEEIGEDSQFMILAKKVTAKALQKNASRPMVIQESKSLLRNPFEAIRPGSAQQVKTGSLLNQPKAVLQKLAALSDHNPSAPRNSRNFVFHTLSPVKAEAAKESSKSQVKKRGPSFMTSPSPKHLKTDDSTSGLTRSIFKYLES

TIMELESS = target: T2, TIMELESS (human, UniProt Q9UNS1 1-1208); experiment: cryo-EM structure; replisome reconstituted on fork DNA with AMP-PNP, isolated on a glycerol gradient with glutaraldehyde and BS3; 3.2 Å overall; a sample without CLASPIN solved at 3.4 Å; details: both partners purified
T2 construct: Stood in the structure as a subunit of m3; residues 7-803 modelled (527-684 not visualised)
T2 sequence: B1 chain

Binder	binding result (CLASPIN)	binding result (TIMELESS)
B1	binds	–
B2	binds	–
B3	–	binds
